From the supplement of paper PMC10567573

B1: MYOZ1 (parent)
chain: FSDSSMDHFQKFLPTVGGQLGTAG
B2: POLD4 (parent)
chain: ITDSYPVVKRREGPAGHSKGELAP

Variants of: B1
Assay: protein stability index of a GFP-peptide fusion (GPS, HEK-293T) (PSI 1-6); higher = more stable
Settings: c terminus: a fixed tail appended
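Further: lentivirally expressed fusions sorted by FACS into six bins by GFP to DsRed ratio, PSI derived from sequencing read proportions per bin multiplied by bin number.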

Variant	protein stability index
FSDSSMDHFQKFLPTVGSQLGTAG [G18S]	2.48
FSDSSMDHFQKFLPTVGYQLGTAG [G18Y]	1.64
FSDSSMDHFQKFLPTVGWQLGTAG [G18W]	1.85
FSDSSMDHFQKFLPTVGTQLGTAG [G18T]	2.55
FSDSSMDHFQKFLPTVGVQLGTAG [G18V]	1.94
FSDSSMDHFQKFLPTVGGCLGTAG [Q19C]	1.96
FSDSSMDHFQKFLPTVGGLLGTAG [Q19L]	2.16
FSDSSMDHFQKFLPTVGGALGTAG [Q19A]	1.79
FSDSSMDHFQKFLPTVGGVLGTAG [Q19V]	1.89
FSDSSMDHFQKFLPTVGGDLGTAG [Q19D]	2.58
FSDSSMDHFQKFLPTVGGGLGTAG [Q19G]	2.05
FSDSSMDHFQKFLPTVGGILGTAG [Q19I]	2.01
FSDSSMDHFQKFLPTVGGELGTAG [Q19E]	3.12
FSDSSMDHFQKFLPTVGGFLGTAG [Q19F]	1.42
FSDSSMDHFQKFLPTVGGWLGTAG [Q19W]	2.35
FSDSSMDHFQKFLPTVGGHLGTAG [Q19H]	1.74
FSDSSMDHFQKFLPTVGGMLGTAG [Q19M]	2.03
FSDSSMDHFQKFLPTVGGYLGTAG [Q19Y]	2.04
FSDSSMDHFQKFLPTVGGKLGTAG [Q19K]	2.33
FSDSSMDHFQKFLPTVGGTLGTAG [Q19T]	2.29
FSDSSMDHFQKFLPTVGGSLGTAG [Q19S]	2.2
FSDSSMDHFQKFLPTVGGNLGTAG [Q19N]	2.08
FSDSSMDHFQKFLPTVGGPLGTAG [Q19P]	2.51
FSDSSMDHFQKFLPTVGGRLGTAG [Q19R]	3.06

Variant	protein stability index
FSDSSMDHFQKFLPTVGGQLFTAG [G21F]	1.62
FSDSSMDHFQKFLPTVGGQLATAG [G21A]	1.87
FSDSSMDHFQKFLPTVGGQLVTAG [G21V]	1.75
FSDSSMDHFQKFLPTVGGQLMTAG [G21M]	2.28
FSDSSMDHFQKFLPTVGGQLCTAG [G21C]	1.61
FSDSSMDHFQKFLPTVGGQLITAG [G21I]	1.76
FSDSSMDHFQKFLPTVGGQLPTAG [G21P]	2.54
FSDSSMDHFQKFLPTVGGQLSTAG [G21S]	1.69
FSDSSMDHFQKFLPTVGGQLQTAG [G21Q]	2.04
FSDSSMDHFQKFLPTVGGQLKTAG [G21K]	2.32
FSDSSMDHFQKFLPTVGGQLNTAG [G21N]	2.98
FSDSSMDHFQKFLPTVGGQLWTAG [G21W]	1.76
FSDSSMDHFQKFLPTVGGQLTTAG [G21T]	2.13
FSDSSMDHFQKFLPTVGGQLHTAG [G21H]	2.14
FSDSSMDHFQKFLPTVGGQLLTAG [G21L]	2.71
FSDSSMDHFQKFLPTVGGQLETAG [G21E]	2.35
FSDSSMDHFQKFLPTVGGQLRTAG [G21R]	2.25
FSDSSMDHFQKFLPTVGGQLDTAG [G21D]	2.81
FSDSSMDHFQKFLPTVGGQLYTAG [G21Y]	1.59
FSDSSMDHFQKFLPTVGGQLGNAG [T22N]	2.54
FSDSSMDHFQKFLPTVGGQLGYAG [T22Y]	2.05
FSDSSMDHFQKFLPTVGGQLGHAG [T22H]	1.86
FSDSSMDHFQKFLPTVGGQLGEAG [T22E]	3.05
FSDSSMDHFQKFLPTVGGQLGQAG [T22Q]	2.36

Variant	protein stability index
FSDSSMDHFQKFLPTVGGQLGAAG [T22A]	2.29
FSDSSMDHFQKFLPTVGGQLGSAG [T22S]	2.19
FSDSSMDHFQKFLPTVGGQLGWAG [T22W]	1.43
FSDSSMDHFQKFLPTVGGQLGDAG [T22D]	2.86
FSDSSMDHFQKFLPTVGGQLGGAG [T22G]	2.09
FSDSSMDHFQKFLPTVGGQLGMAG [T22M]	2.14
FSDSSMDHFQKFLPTVGGQLGCAG [T22C]	1.81
FSDSSMDHFQKFLPTVGGQLGLAG [T22L]	3.17
FSDSSMDHFQKFLPTVGGQLGRAG [T22R]	2.16
FSDSSMDHFQKFLPTVGGQLGKAG [T22K]	3.06
FSDSSMDHFQKFLPTVGGQLGIAG [T22I]	2.57
FSDSSMDHFQKFLPTVGGQLGPAG [T22P]	2.15
FSDSSMDHFQKFLPTVGGQLGFAG [T22F]	1.82
FSDSSMDHFQKFLPTVGGQSGTAG [L20S]	3.71
FSDSSMDHFQKFLPTVGGQPGTAG [L20P]	3.12
FSDSSMDHFQKFLPTVGGQEGTAG [L20E]	3.51
FSDSSMDHFQKFLPTVGGQHGTAG [L20H]	2.79
FSDSSMDHFQKFLPTVGGQRGTAG [L20R]	2.98
FSDSSMDHFQKFLPTVGGQDGTAG [L20D]	3.24
FSDSSMDHFQKFLPTVGGQTGTAG [L20T]	2.53
FSDSSMDHFQKFLPTVGGQWGTAG [L20W]	1.56
FSDSSMDHFQKFLPTVGGQQGTAG [L20Q]	2.66
FSDSSMDHFQKFLPTVGGQKGTAG [L20K]	3.1
FSDSSMDHFQKFLPTVGGQCGTAG [L20C]	1.66

Variant	protein stability index
FSDSSMDHFQKFLPTVGGQVGTAG [L20V]	2.25
FSDSSMDHFQKFLPTVGGQAGTAG [L20A]	2.58
FSDSSMDHFQKFLPTVGGQFGTAG [L20F]	2.25
FSDSSMDHFQKFLPTVGGQYGTAG [L20Y]	2.27
FSDSSMDHFQKFLPTVGGQNGTAG [L20N]	2.97
FSDSSMDHFQKFLPTVGGQGGTAG [L20G]	3.24
FSDSSMDHFQKFLPTVGGQMGTAG [L20M]	2.35
FSDSSMDHFQKFLPTVGGQIGTAG [L20I]	2.69
FSDSSMDHFQKFLPTVGGQLGTQG [A23Q]	2.62
FSDSSMDHFQKFLPTVGGQLGTSG [A23S]	1.83
FSDSSMDHFQKFLPTVGGQLGTLG [A23L]	2.01
FSDSSMDHFQKFLPTVGGQLGTFG [A23F]	2.49
FSDSSMDHFQKFLPTVGGQLGTHG [A23H]	2.3
FSDSSMDHFQKFLPTVGGQLGTEG [A23E]	2.92
FSDSSMDHFQKFLPTVGGQLGTCG [A23C]	2.08
FSDSSMDHFQKFLPTVGGQLGTWG [A23W]	2.01
FSDSSMDHFQKFLPTVGGQLGTTG [A23T]	2.59
FSDSSMDHFQKFLPTVGGQLGTRG [A23R]	2.95
FSDSSMDHFQKFLPTVGGQLGTPG [A23P]	2.22
FSDSSMDHFQKFLPTVGGQLGTMG [A23M]	1.63
FSDSSMDHFQKFLPTVGGQLGTYG [A23Y]	2.19
FSDSSMDHFQKFLPTVGGQLGTKG [A23K]	2.14
FSDSSMDHFQKFLPTVGGQLGTIG [A23I]	1.91
FSDSSMDHFQKFLPTVGGQLGTDG [A23D]	2.68

Variant	protein stability index
FSDSSMDHFQKFLPTVGGQLGTNG [A23N]	2.68
FSDSSMDHFQKFLPTVGGQLGTGG [A23G]	2.77
FSDSSMDHFQKFLPTVGGQLGTAV [G24V]	2.42
FSDSSMDHFQKFLPTVGGQLGTAY [G24Y]	1.2
FSDSSMDHFQKFLPTVGGQLGTAS [G24S]	1.98
FSDSSMDHFQKFLPTVGGQLGTAW [G24W]	1.23
FSDSSMDHFQKFLPTVGGQLGTAP [G24P]	2.25
FSDSSMDHFQKFLPTVGGQLGTAM [G24M]	1.92
FSDSSMDHFQKFLPTVGGQLGTAE [G24E]	2.54
FSDSSMDHFQKFLPTVGGQLGTAK [G24K]	2.16
FSDSSMDHFQKFLPTVGGQLGTAR [G24R]	2.22
FSDSSMDHFQKFLPTVGGQLGTAL [G24L]	2.36
FSDSSMDHFQKFLPTVGGQLGTAN [G24N]	2.03
FSDSSMDHFQKFLPTVGGQLGTAI [G24I]	1.54
FSDSSMDHFQKFLPTVGGQLGTAH [G24H]	2.33
FSDSSMDHFQKFLPTVGGQLGTAQ [G24Q]	1.98
FSDSSMDHFQKFLPTVGGQLGTAA [G24A]	1.71
FSDSSMDHFQKFLPTVGGQLGTAD [G24D]	3.09
FSDSSMDHFQKFLPTVGGQLGTAT [G24T]	1.89
FSDSSMDHFQKFLPTVGGQLGTAC [G24C]	1.95

Variants of: B2
Assay: as above
Settings: c terminus: a fixed tail appended

Variant	protein stability index
ITDSTPVVKRREGPAGHSKGELAP [Y5T]	3.5
ITDSHPVVKRREGPAGHSKGELAP [Y5H]	5.39
ITDSVPVVKRREGPAGHSKGELAP [Y5V]	4.23
ITDSKPVVKRREGPAGHSKGELAP [Y5K]	5.3
ITDSIPVVKRREGPAGHSKGELAP [Y5I]	4.84
ITDSEPVVKRREGPAGHSKGELAP [Y5E]	5.69
ITDSSPVVKRREGPAGHSKGELAP [Y5S]	4.91
ITDSPPVVKRREGPAGHSKGELAP [Y5P]	5.13
ITDSCPVVKRREGPAGHSKGELAP [Y5C]	3.78
ITDSQPVVKRREGPAGHSKGELAP [Y5Q]	5.68
ITDSNPVVKRREGPAGHSKGELAP [Y5N]	4.98
ITDSRPVVKRREGPAGHSKGELAP [Y5R]	4.72
ITDSMPVVKRREGPAGHSKGELAP [Y5M]	3.5
ITDSLPVVKRREGPAGHSKGELAP [Y5L]	4.59
ITDSWPVVKRREGPAGHSKGELAP [Y5W]	3.08
ITDSDPVVKRREGPAGHSKGELAP [Y5D]	5.56
ITHSYPVVKRREGPAGHSKGELAP [D3H]	2.97
ITVSYPVVKRREGPAGHSKGELAP [D3V]	2
ITYSYPVVKRREGPAGHSKGELAP [D3Y]	2.74
ITLSYPVVKRREGPAGHSKGELAP [D3L]	2.46
ITMSYPVVKRREGPAGHSKGELAP [D3M]	3.2
ITTSYPVVKRREGPAGHSKGELAP [D3T]	4.2
ITCSYPVVKRREGPAGHSKGELAP [D3C]	1.78
ITNSYPVVKRREGPAGHSKGELAP [D3N]	2.68

Variant	protein stability index
ITKSYPVVKRREGPAGHSKGELAP [D3K]	3.89
ITWSYPVVKRREGPAGHSKGELAP [D3W]	1.99
ITFSYPVVKRREGPAGHSKGELAP [D3F]	3.39
ITSSYPVVKRREGPAGHSKGELAP [D3S]	2.68
ITGSYPVVKRREGPAGHSKGELAP [D3G]	4.07
ITISYPVVKRREGPAGHSKGELAP [D3I]	1.09
HTDSYPVVKRREGPAGHSKGELAP [I1H]	3.73
LTDSYPVVKRREGPAGHSKGELAP [I1L]	3.44
STDSYPVVKRREGPAGHSKGELAP [I1S]	5.09
TTDSYPVVKRREGPAGHSKGELAP [I1T]	4.79
QTDSYPVVKRREGPAGHSKGELAP [I1Q]	4.43
VTDSYPVVKRREGPAGHSKGELAP [I1V]	4.4
FTDSYPVVKRREGPAGHSKGELAP [I1F]	1.59
ATDSYPVVKRREGPAGHSKGELAP [I1A]	4.82
GTDSYPVVKRREGPAGHSKGELAP [I1G]	4.68
CTDSYPVVKRREGPAGHSKGELAP [I1C]	4.11
RTDSYPVVKRREGPAGHSKGELAP [I1R]	4.81
DTDSYPVVKRREGPAGHSKGELAP [I1D]	5.18
PTDSYPVVKRREGPAGHSKGELAP [I1P]	3.23
YTDSYPVVKRREGPAGHSKGELAP [I1Y]	2.62
MTDSYPVVKRREGPAGHSKGELAP [I1M]	2.72
IFDSYPVVKRREGPAGHSKGELAP [T2F]	4.27
IADSYPVVKRREGPAGHSKGELAP [T2A]	2.43
IHDSYPVVKRREGPAGHSKGELAP [T2H]	4.41

Variant	protein stability index
IDDSYPVVKRREGPAGHSKGELAP [T2D]	4.35
IPDSYPVVKRREGPAGHSKGELAP [T2P]	3.71
IIDSYPVVKRREGPAGHSKGELAP [T2I]	4.58
ISDSYPVVKRREGPAGHSKGELAP [T2S]	3.69
IVDSYPVVKRREGPAGHSKGELAP [T2V]	3.36
IMDSYPVVKRREGPAGHSKGELAP [T2M]	3.78
IYDSYPVVKRREGPAGHSKGELAP [T2Y]	4.27
ILDSYPVVKRREGPAGHSKGELAP [T2L]	4.98
IGDSYPVVKRREGPAGHSKGELAP [T2G]	3.61
IWDSYPVVKRREGPAGHSKGELAP [T2W]	3.37
ITDDYPVVKRREGPAGHSKGELAP [S4D]	5.06
ITDRYPVVKRREGPAGHSKGELAP [S4R]	3.87
ITDTYPVVKRREGPAGHSKGELAP [S4T]	2.56
ITDHYPVVKRREGPAGHSKGELAP [S4H]	2.67
ITDYYPVVKRREGPAGHSKGELAP [S4Y]	2.57
ITDNYPVVKRREGPAGHSKGELAP [S4N]	4.16
ITDEYPVVKRREGPAGHSKGELAP [S4E]	4.58
ITDIYPVVKRREGPAGHSKGELAP [S4I]	3.51
ITDQYPVVKRREGPAGHSKGELAP [S4Q]	3.81
ITDPYPVVKRREGPAGHSKGELAP [S4P]	4.58
ITDSYAVVKRREGPAGHSKGELAP [P6A]	3.48
ITDSYEVVKRREGPAGHSKGELAP [P6E]	4.33
ITDSYDVVKRREGPAGHSKGELAP [P6D]	5.12
ITDSYFVVKRREGPAGHSKGELAP [P6F]	3.52
